Measured values taken from patent US6774212 (Bristol-Myers Squibb, dated 2004).
Square brackets hold non-standard residues; d marks the D form. Ends that are not written are not given here. * marks the point of attachment. boroAlg = alpha-aminoboronic acid analogue of L-2-amino-4-pentenoic acid (1-amino-3-butenylboronic acid, -B(OH)2 in place of -COOH), C=CC[C@H](N*)B(O)O

Target: T1, HCV NS3 protease catalytic domain (amino acids 1 to 192), genotype 1a (Hepatitis C virus, genotype 1a, UniProt P26664 1027-1218)
T1 construct: domain: NS3 protease catalytic domain (amino acids 1 to 192); Expressed in E. coli BL21(DE3) and purified to >95%; also called HCV NS3 1a protease; Hepatitis C Virus NS3 protease
Experiment: active-site titration of NS3 protease; linear plots of Activity vs. [inhibitor], protease concentration from the x-intercept

T1 sequence (P26664 1027-1218): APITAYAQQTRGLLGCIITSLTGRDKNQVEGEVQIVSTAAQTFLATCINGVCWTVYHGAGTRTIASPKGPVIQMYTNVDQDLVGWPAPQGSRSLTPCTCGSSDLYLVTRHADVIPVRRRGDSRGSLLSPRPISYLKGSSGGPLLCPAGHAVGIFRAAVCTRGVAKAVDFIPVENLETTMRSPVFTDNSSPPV

B1: H-Asp-Glu-Val-Val-Pro-boroAlg-OH (peptide)
peptide: H-DEVVP[boroAlg]
notes: Peptide boronic acid used as titrant to determine the protease concentration
binding result: binds
